Drawing on patent publication US20220411475A1, this text covers Min binding conc., higher stringency neutralization assay, complete neutralization and neutralization of HDV-HBV infection of HepaRG cells (intracellular HDV RNA) for 2 substances.

Assay [1] concerns the target PreS1-WHc VLP-1.1+ (19-43) (Woodchuck hepatitis virus; Hepatitis B virus (ayw)). Description: solid-phase ELISA, antigen on plate. A general note: An ELISA detects its analyte on a solid surface through an enzyme-linked reagent.
Assay [2] addresses PreS1-WHc VLP-1.4+ (15-34) (Woodchuck hepatitis virus; Hepatitis B virus (ayw)). Description: solid-phase ELISA, antigen on plate.
The target of assay [3] is PreS1-WHc VLP-1.6 (15-40). Description: solid-phase ELISA, antigen on plate.
Assay [4] concerns the target myristoylated rPreS1/PreS2 protein (Hepatitis B virus (ayw)) (UniProt P03138). Description: solid-phase ELISA, antigen on plate.
Assay [5] addresses recombinant (r) PreS1/PreS2 protein (Hepatitis B virus (ayw)) (UniProt P03138). The experiment in a line: solid-phase ELISA, antigen on plate.
Assay [6] concerns the target combination of VLPs 1.6+1.9. The experiment in a line: solid-phase ELISA, antigen on plate.
The target of assay [7] is PreS1 synthetic peptide p(21-42) (Hepatitis B virus (ayw)). Description: solid-phase ELISA, antigen on plate.
The target in assay [8] is PreS1 synthetic peptide p(1-36) (Hepatitis B virus (ayw)). The experiment in a line: solid-phase ELISA, antigen on plate.
Assay [9] concerns the target PreS1-WHc VLP-1.1 (21-43) (Woodchuck hepatitis virus; Hepatitis B virus (ayw)). The experiment in a line: solid-phase ELISA, antigen on plate.
Assay [10] concerns the target purified HBV virions (Hepatitis B virus). Description: solid-phase ELISA, antigen on plate.
The target in assay [11] is PreS1-WHc VLP-1.4 (15-31) (Woodchuck hepatitis virus; Hepatitis B virus (ayw)) (UniProt P0C6J2). The experiment in a line: solid-phase ELISA, antigen on plate.
Assay [12] deals with PreS1 synthetic peptide p(18-25) (Hepatitis B virus (ayw)). The experiment in a line: solid-phase ELISA, antigen on plate.
Assay [13] addresses PreS1-WHc VLP-1.9 (83-106-NH2/1-25-loop). The experiment in a line: solid-phase ELISA, antigen on plate.
The target of assay [14] is PreS1-WHc VLP-1.5 (1-34) (Woodchuck hepatitis virus; Hepatitis B virus (ayw)). Description: solid-phase ELISA, antigen on plate.
In assay [15] the target is PreS1-WHc VLP-1.3+ (1-25) (Woodchuck hepatitis virus; Hepatitis B virus (ayw)). The experiment in a line: solid-phase ELISA, antigen on plate.
The target in assay [16] is HDV particles coated with HBV envelope proteins (L/M/S HBsAg/ay) (Hepatitis B virus genotype D, subtype ayw) (UniProt P03138). Description: cell-based or functional assay.

In the case of PreS1-specific Mab KR-127 (antibody), the Min binding conc. came out at 1000 ng/mL in assay [1]; 8 ng/mL in assay [2]; 1.6 ng/mL in assay [3]; 1.6 ng/mL in assay [4]; 1.6 ng/mL in [5]; 1.6 ng/mL in assay [6]. Also, the Min binding conc. was determined as 1.6 ng/mL in assay [7], 1.6 ng/mL in assay [8], 1.6 ng/mL in assay [9] and 75 ng/mL in assay [10].
For the substance PreS1-specific Mab 18/7 (antibody), the Min binding conc. in assay [1] is 0.3 ng/mL; in [2] it was 8 ng/mL; in assay [11], 0.3 ng/mL; in [3], 0.3 ng/mL; in [12], 8 ng/mL; in assay [4], 0.3 ng/mL. Further, the Min binding conc. stood at 1.6 ng/mL in assay [13]; 0.3 ng/mL in assay [5]; 0.3 ng/mL in [14]; 1.6 ng/mL in assay [15]; 0.3 ng/mL in assay [6]; 1.6 ng/mL in assay [8]. In assay [10], the Min binding conc. came to 2 ng/mL. The substance also gave a higher stringency neutralization assay, complete neutralization in [16] greater than 5 µg/mL. The neutralization of HDV-HBV infection of HepaRG cells (intracellular HDV RNA) in assay [16] was less than 0.05 µg/mL.
